Test: soluble on expression in E. coli; label from the status in PepcDB or PDB records

Sequence	soluble on expression in E. coli
VLPHARKVARETGIPEHFMIAQAALETGWGRHQIRRADNQPSFNLFGIKASGNWRGGVVETVTTEYVDGKPQKLREKFRTYDSYEDAFRDYAKLLQNNPRYAAVLKSRSATAFAWGLQQAGYATDPSYAEKLLKIINSDALSI	not soluble
MNVTLLVADAVWSNIESTGSVTEEQLSILQLLFGKNLEKATRIIDKRGVKKISGLPSGRSIFQVVGESQKREEYLCFPGDYCGCYSFFYDVVSRGEHQCCKHQLAARLASSLGTYNEIEVSDDHLALMLSKI	not soluble
GPGSMSASSAPDRVYVGKRLHFTNGSRQLVRCGTRNIAVVCNRNELYAIDNACYHHGGPLLLGDIEEMGGHPCIVCPWHSYKIALDTGEGLYLGVELSPAGGTPKQVVRSKGCKQRVHKVEVDEADDVYVLVDLSGPTLESDTYASMELANRERPMSLPVDGGGRGLRVPGIHSHAGVELRSGQVFQHMGSLAEAGGNTGTRGANSLDHAQKTRPHEITSRGSSCSSPTTRLMVSCVAITDVCPQVRQFDFVHHAGPLLRHAELGEYVELELPIKERRTANGGGGQAVDLLSSSSAPAATAGEPMRRRWTICDMNHNSTLFSIIVKAAGTDTQASGSAWLHEHSLSVPLPITRVGGTFTFARHRDTIRRVGGRVLWLTAGVGMTPAYAFLNASLGNSLYVASAEPLHVVHLHSNRTLETVPKLEQFGRWQREFPRSALDTAEKTSGGSGARKPGKTYVMELFIALSTDAGQGQRTSPGSSPPDSCPVATITHRSRLQPANVSAAVQKYFGADMQLAYVCGPQKFVKDCTEALVSTGVPESHILTDDP	not soluble
MGSDKIHHHHHHMNRDTERTTMEGEHLYSPKNDDAPPAPAPDSPASLLDELIEAARVKRDEEAYPITRHGIEAFVAHLARPKRPIETVSQATIDDMIAEIDRKLCRQVDAILHHPDFQQLESTWRSLKFLVERTDFRENIKIQFLDVGKAALLDDFDDSPDITKSGLYQKVYAAEYGQFGGQPIGAIVANYTFGPGAQDVKLLQYVASTSAMAHTPFIAAAGPAFFGIDSFGKLPNVKDLASLFEGPQFAKWNAFRESEDARYVGLTLPRFLLRLPYGANTTPVKRFNYDERVDGGDADFLWGNAAFAFATRLTASFADYRWCANVIGPKGGGTVADLPLYAYEAMGEIQNKIPTDVLISERREFELAEQGFIALTMRKHSDNAAFFSANSTQKPKFFGISKEGKDAELNYRLGTQLPYIFVVNRLAHYIKVIQRENIGTWKERGDLEQELNQWIRQYVADMDNPTEGVRSRRPLRQAEIFVSDVEGEPGWYRVDMKVRPHFKYMGASFTLSLVGKLEKR	not soluble
MAEVHVRELKGWEEMEEVVALQREVWGRAESDLVPRGLLVAVQDEGGLVAGAFAEGRMVGFVFGFPTKDPALHHSHMLGVLEAYRGTGAALLLKRFQRDWCLARGVRRVVWTFDPMRGVNANFNLRKLGATAKTYLPDHYGPMSGINAGAPSDRLLAEWDL	not soluble
MGHHHHHHSHMIHIVQAKDKGQTARATKFLALDKCLPHRDFLQILEIEHDPSAPDYLEYDIEWLTILRATDDLINVTGRLWNMPESNGLHARWDYSATEEGMKEVLEKLNHDLKVPCNFSVTAACYDPSKPQTQMQLIHRINPQTTEFCAQLGIIDINVRLQKSKEEHHVCGEYEEQDDVESNDSGEDQSEYNTDTSALSSINPDEIMLDEEEDEDSIVSAHSGMNTPSVEPSDQASEFSASFSDVRILPGSMIVSSDDTVDSTIDREGKPGGTVESGNGEDLTKVPLKRLSDEHEPEQRKKIKRRNQAIYAAVDDDDDDAA	not soluble
MSLKKLIAVAVLSACGSLAHANTNIPNYNTDAHLYEFTQTYDLVVPKGSQGQTNLWVPLPFNGEYQQVKSIHFEGNYMNAYVTENNKYGAKTLFATWNKDAQKRDLKVMMVIETKDREPMVKGALENYTPPKDIQYSVDVQEYLKATPHIKTDGIVKEFPDKILGKETNPLKKAELIHHWFVKNMERDNSVLGCGDGDVEKILTTGVLKGKCTDINSVFVALARAAGIPAREIFGIRLGAAEKMGKYSKGAFGSANEQGIANVSGGQHCRAEFYLAGFGWVPVDSADVAKMRLAEKKSVEDKDTQAVAKYLFGNWEANWVGFNHARDFDLYPQPELAPINNFGYPYAEVGGDPLNSFDPKEFKYDYVSKKLEGGSHHHHHH	soluble
MNFENLLIELGTEELPPKALRKLAESFLANFTEELTKADLAFKSAVWYAAPRRLALNITELAIAQADKIVEKRGPAVSSAFDAGGKPTKAAEGWARGNGITVDQAERLVTDKGEWLVYNAKVEGVETKSLVAAMAQRALDKLPIPKPMRWGSSKTQFIRPVHTATMLLGSELIEGELLGIKSARNIRGHRFMGTGFELDHADNYLTLLKEKGKVIADYESRKALIKADAEKAAAKIGGTADIEDALLEEVTSLVEWPVVLTASFEEKFLSVPSEALVYTMKGDQKYFPVFDDAGKLLPNFIFVANIESKDPAQIISGNEKVVRPRLADAEFFFNTDKKHTLESRLPSLETVLFQQQLGTLKDKVTRISALAAFIAEQTGANAVDAARAGLLSKTDLMTNMVMEFTDTQGTMGMHYARLDGETEAVALAMEEQYKPKFSGDTVPTAAVSCAVALADKLDTLVGIFGIGQAPKGAADPFALRRAAIGVLRIIVENKLPLDLVTLIAKAQELHGANLSNANASEEVLEFLMARFRAWYQDKGINVDVILAVLARRPTR	not soluble
MSLGDLPLGWHKLHLKSNERSAECGLIITPARLSTADKYLDSPRSGVMAQIYSVRSTLSWGMGDFNDLGNLASVVAQDGADFLLINPMHAAEPLPPTEDSPYLPTTRRFINPIYIRVEDIPEFNQLEIDLRDDIAEMAAEFRERNLTSDIIERNDVYAAKLQVLRAIFEMPRSSEREANFVSFVQREGQGLIDFATWCADRETAQSESVHGTEPDRDELTMFYMWLQWLCDEQLAAAQKRAVDAGMSIGIMADLAVGVHPGGADAQNLSHVLAPDASVGAPPDGYNQQGQDWSQPPWHPVRLAEEGYIPWRNLLRTVLRHSGGIRVDHVLGLFRLFVMPRMQSPATGTYIRFDHNALVGILALEAELAGAVVIGEDLGTFEPWVQDALAQRGIMGTSILWFEHSPSQPGPRRQEEYRPLALTTVTTHDLPPTAGYLEGEHIALRERLGVLNTDPAAELAEDLQWQAEILDVAASANALPAREYVGLERDQRGELAELLEGLHTFVAKTPSALTCVCLVDMVGEKRAQNQPGTTRDMYPNWCIPLCDSEGNSVLIESLRENELYHRVAKASKRDEGHHHHHH	not soluble
MTDICMLKTMDSRNTNEAKQEPKTMVWWDINSCPVPDGYDARMVAHSIESELKKAGYPGPLTITAIGYLNTPLMCM	not soluble
SLVKGESGHQAVSGIAIQRDLAIIEVDKEHLSSATKQCQMLGIDIWNVIEETERTGIMIKQEACAKFDLVFSDKIRNSEAVSLLTAVGLEANGMVEHACGLLAQQDIAINFCATNALTMMLVLPPESVDTAANILHDAYITSSEALNIQQKHAFLG	not soluble
MIIDIHGHYTTAPKALEDWRNRQIAGIKDPSVMPKVSELKISDDELQASIIENQLKKMQERGSDLTVFSPRASFMAHHIGDFNVSSTWAAICNELCYRVSQLFPDNFIGAAMLPQSPGVDPKTCIPELEKCVKEYGFVAINLNPDPSGGHWTSPPLTDRIWYPIYEKMVELEIPAMIHVSTSCNTCFHTTGAHYLNADTTAFMQCVAGDLFKDFPELKFVIPHGGGAVPYHWGRFRGLAQEMKKPLLEDHVLNNIFFDTCVYHQPGIDLLNTVIPVDNVLFASEMIGAVRGIDPRTGFYYDDTKRYIEASTILTPEEKQQIYEGNARRVYPRLDAALKAKGKAAALEHHHHHH	not soluble
MANQHANHSINDFKQFVKKHPKLIKEVRKEQRSWQDVYENWVLFGESDPIWDPYREPEEASEAVPETPQKNDFVSKMVTAVKKMDVNQMNEQINKMSQSISSLQSLLNTFSGSGQKHSQPGSGQHPFSFRKDLEHHHHHH	soluble
MVYNENTPHFYNKSGKETFMSNILFSVFPNENFIDMSLYQFGWEQCQPSHSYGPAARNHYLFHYVISGTGTLMADDTSGITQTYSVKSGQGFMIFPQQITTYIADQKLPWEYVWIEFDGLRVKEILELAGLTKSAPIYHAHSKEMREVLKEEMLYIARNPEQPPFHLIGHLYLFMDALTRSCTREQTNSAGRLRDFYIHEAIAFIEQNFQNDISVEDIAEVCGLNRSYFGKIFKETLGRSPQEFLMNYRMVKATELLKLTQLSISEISNAVGYANPLHFSRAFKNVYGESPRIWRQNHRT	not soluble
MSSQKQLEGMIFDVQSFSVHDGPGCRTTVFLNGCPLSCKWCANPESWTVRPHMMFSELSCQYENGCTVCHGKCKNGALSFNLDNKPVIDWNICKDCESFECVNSCYYNAFKLCAKPYTVDELVQVIKRDSNNWRSNGGVTFSGGEPLLQHEFLHEVLLKCHEVNIHTAIETSACVSNEVFNKIFNDIDFAFIDIKHMDREKHKEQTGVYNDLILENISNLANSDWNGRLVLRVPVISGFNDSDENISDIISFMHKNNLVEINLLPFHRLGESKWTQLGKEYEYSDKGDVDEGHLEELQDIFLDNGIACYVGHETAF	not soluble
IQQHSTDIETPTGTMRTYVYRPQASGKFPTIIFYSEIFQQTAPIARTAALMAGHGFVVLVPEVFHELNPIGTVLGYDDAGKDKGNQDKWAKPLEHHDSDTQALVNFIQQQDYCSGKIGTMGVCIGGHLAYRAALNKSVLAAACLYATDIHSGDLPSAEGNDSLTRTKDISAELMMIWGKQDPHIPDEGRMMIHKNLIASGNLFSWHEFNASHAFMRDEGERYDPQLALRVYGMSVELFNRTL	not soluble
MGSDKIHHHHHHMSSVGDFEEIILHDLKPYYHVPGAIHSEGITFVKETGTLLWVDIFKGEVHKVEDIEQPESSHSFFSISRANYGKNASIEYPPNPDELKESVGCIFPILDGASQNEIKQVLFGSKFGIGKLDFSKSEWEYVILYSECPELSTDRAYKLRSNDGNVSPDGKYIYVGLMSDFPFDLEPIGCLLRVDLLAHKIELVWNCLLIPNAIHWDESDQKTMYVTDSLNFTIWKCPGGDLLKRDELIDVKNSNNQSFESPEPDGSAIWFSKDGKHSGFLFITVWSTSKVQMFDLTNGKLLKEFILPEQTPRVSCCCFVGKDLFVTTANAEINDAVRTNTDKNGGCIYKIPNVLDGNVPLESTKRQPLH	not soluble
YEVKVKLADIQADPNSPLYSAKSFDELGLAPELLKGIYAMKFQKPSKIQERALPLLLHNPPRNMIAQSQSGTGKTAAFSLTMLTRVNPEDASPQAICLAPSRELARQTLEVVQEMGKFTKITSQLIVPDSFEKNKQINAQVIVGTPGTVLDLMRRKLMQLQKIKIFVLDEADNMLDQQGLGDQCIRVKRFLPKDTQLVLFSATFADAVRQYAKKIVPNANTLELQT	soluble
WLEPYLAGVTSVKGLQSVSVLQALKHYLGWELSQQLDEWLPTHHLLPTGNHKKIRYQLGMEPTLSVRMQEVFGEQSSPRVAKGTRAVVMELLSPAQRPLQVTRDLASFWAGAYKEVQKEMKGRYPKHVWPDDPANHVATSKTKRQLNA	not soluble
MAFLGLFSLLVLQSMATGATFPEEAIADLSVNMYNRLRATGEDENILFSPLSIALAMGMMELGAQGSTQEEIRHSMGYDSLKNGEEFSFLKEFSNMVTAKESQYVMKIANSLFVQNGFHVNEEFLQMMKKYFNAAVNHVDFSQNVAVANYINKWVENNTNNLVKDLVSPRDFDAATYLALINAVYFKGNWKSQFRPENTRTFSFTKDDESEVQIPMMYQQGEFYYGEFSDGSNEAGGIYQVLEIPYEGDEISMMLVLSRQEVPLATLEPLVKAQLVEEWANSVKKQKVEVYLPRFTVEQEIDLKDVLKALGITEIFIKDANLTGLYDNKEIFLSKAIHKSFLEVNEEGSEAAAVSGMIAISRMAVLYPQVIVDHPFFFLIRNRRTGTILFMGRVMHPETMNTSGHDFEEL	soluble
